In assay [1] the target is PcrG (Pseudomonas aeruginosa strain 2192). Description: SEC; HiLoad 16/60 Superdex 200 pg; 25 mM Tris–HCl pH 7.4, 150 mM NaCl; proteins 2–5 mg/ml; 1 ml/min; calibrated with markers. (In general: Size exclusion chromatography separates by hydrodynamic size, large species first.)
Assay [2] has as its target ∆PcrG_((13–72)) (Pseudomonas aeruginosa strain 2192). Description: SPR; BIACORE 3000, NTA sensor chip; […]; 10 mM hepes pH 7.4, 150 mM NaCl, 50 μM EDTA; 25°C; 5 μl/min; Langmuir binding model. (Surface plasmon resonance follows binding to a sensor surface in real time, without labels.)
For assay [3], the target named is PcrG (Pseudomonas aeruginosa strain 2192). Described as above.
Assay [4] shares this target. Description: cross-linking; EGS-sulfonate 0.5 mM, 1 mM and 2 mM, room temperature, 30 minutes; 10 mM hepes pH 7.4, 150 mM NaCl; 12% SDS PAGE.
Assay [5] has the same target. As to the kind of experiment: dynamic light scattering; Malvern Zetasizer nano ZS; proteins 2–5 mg/ml, filtered 0.22 micron; ΔPcrV(128–294) alone and with equimolar PcrG.
For assay [6], the target named is ∆PcrG_((13–72)) (Pseudomonas aeruginosa strain 2192). As to the kind of experiment: native MS; called native mass spectrometry; protein diluted to 0.5-1.0 mg/ml in HPLC water, spotted on a MALDI target plate with CHCA matrix; Applied Biosystem 4700 Proteomics Analyser.

By stoichiometry N is commonly meant the number of molecules, sites or subunits per partner or assembly. Take PcrG (natural protein): the stoichiometry N in assay [1] came out at 2.

What is called Kd is a measure of binding affinity in units of concentration. A word on the koff: it is a measure of how fast the partners let go of each other. Low values mean a long-lived complex, high ones a short-lived complex. For orientation: kon means the second-order rate constant of association. A higher kon goes with faster complex formation. On to “PcrV (from UniProt G3XD49 1-294) (natural protein)”, for which, in assay [2], the Ka came to 1.75e+06 M⁻¹, the Kd was found to be 570 nM, the koff is 0.00978 s⁻¹ and the association rate constant (kon) worked out at 17100 M⁻¹ s⁻¹.

As to “ΔPcrV_((1–158)) (from UniProt G3XD49 1-158) (domain or fragment)”, in assay [3], the equilibrium dissociation constant (Kd) stood at 203 nM.

In assay [3], “ΔPcrV_((1–250)) (from UniProt G3XD49 1-250) (domain or fragment)” registered a dissociation constant Kd of 179 nM.

Regarding “ΔPcrV_((128–250)) (from UniProt G3XD49 128-250) (domain or fragment)”, the Kd in assay [3] was 247 nM.

In assay [3], “ΔPcrV_((128–294)) (from UniProt G3XD49 128-294) (domain or fragment)” registered a Ka of 4.11e+07 M⁻¹, a Kd of 24.3 nM, an off-rate (koff) of 1.24e-05 s⁻¹ and an on-rate (kon) of 511 M⁻¹ s⁻¹. Moreover, in assay [2], the Ka stood at 1.61e+06 M⁻¹, the Kd was found to be 621 nM, the off-rate constant (koff) was 1.69e-05 s⁻¹ and the kon was 27.2 M⁻¹ s⁻¹. Moreover, the stoichiometry N in assay [4] turned out to be 1. The same substance showed a stoichiometry N in assay [5] of 1.

Consider “ΔPcrV_((159–294)) (from UniProt G3XD49 159-294) (domain or fragment)”, for which the equilibrium dissociation constant (Kd) in assay [3] worked out at 36.6 nM.

Regarding ∆PcrG_((13–72)) (domain or fragment), in assay [6], the stoichiometry N came to 2.

Source of the values: paper PMC3904411.
